Biological target: BNP (brain natriuretic peptide) (UniProt P16860 P16860:103-134)
Test: FRET recovery from carboxylated graphene oxide quencher (40 ug/ml), 100 nmol/L aptamer, pH 7.2-7.4, room temperature, 35 min
Details: label: 5'-FAM
Text: The signal response relationship between BNP concentration and fluorescence intensity obtained by detecting BNP in the present invention, its specific detection steps are as follows: [0080] (1) Blank control experiment: individually detect the fluorescence intensity of 100 nmol/L aptamer solution, and set the excitation wavelength as 492 nm, the emission wavelength as 519 nm, and the emission spectrum detection range as 505-610 nm, then use the obtained results as controls. [0081] (2) Mix 100 nmol/L of aptamer solution with 40 ug/ml of carboxylated graphene oxide solution by equal volume, and control the pH value of the solution at 7.2-7.4, and then leave it at room temperature for about 20 min. Then add BNP solution having a series of concentration gradients, respectively, leave it at room temperature for about 35 min, next take out an appropriate amount of mixed solution for fluorescence detection, and record fluorescence spectra at different concentrations. […] With the increase of the BNP concentration, the fluorescence intensity of the solution gradually increases. [0082]

Chain of BNP (brain natriuretic peptide) (P16860 103-134, one chain of several): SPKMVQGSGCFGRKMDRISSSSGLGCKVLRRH

B1: FAM-labelled BNP aptamer (ssDNA)
DNA: TTTTTTTATACGGGAGCCAACACCACCTCTCACATTATATTGTGAATACTTCGTGCTGTTTAGAGCAGGTGTGACGGAT
binding result: binds

Source: patent publication US20240192201, “BRAIN NATRIURETIC PEPTIDE APTAMER FLUORESCENCE DETECTION DEVICE BASED ON SMART PHONE AND SENSING METHOD OF SAME” (TianJin University, published 2024)
